We go through 1 molecule from patent US20130115626A1 (Genentech, published 2013).

This assay deals with T1, full length human NRP1 on transfected HEK-293 cells (human, UniProt O14786 22-923).
T1 construct: whole, on cells; also called HEK-293 cells transfected with human NRP1
Nature of the assay: immunohistochemistry on transfected HEK-293 cells, antibody at 1 ug/ml; cells with empty vector as negative control. The procedure:
Immunohistochemistry (IHC) was performed on freshly cut tissue sections following standard procedure. […] The specificity of the anti-NRP1 antibody was assessed using HEK-293 cells transfected with human NRP1 and empty vector as control (see FIGS. 1A and 1B). To assess expression, whole sections were scored semi-quantitatively on a scale of zero (no expression) to three (very strong signal), according to the intensity of chromagen deposition in ≧10% of neoplastic cells or endothelium.

T1 sequence (O14786 22-923): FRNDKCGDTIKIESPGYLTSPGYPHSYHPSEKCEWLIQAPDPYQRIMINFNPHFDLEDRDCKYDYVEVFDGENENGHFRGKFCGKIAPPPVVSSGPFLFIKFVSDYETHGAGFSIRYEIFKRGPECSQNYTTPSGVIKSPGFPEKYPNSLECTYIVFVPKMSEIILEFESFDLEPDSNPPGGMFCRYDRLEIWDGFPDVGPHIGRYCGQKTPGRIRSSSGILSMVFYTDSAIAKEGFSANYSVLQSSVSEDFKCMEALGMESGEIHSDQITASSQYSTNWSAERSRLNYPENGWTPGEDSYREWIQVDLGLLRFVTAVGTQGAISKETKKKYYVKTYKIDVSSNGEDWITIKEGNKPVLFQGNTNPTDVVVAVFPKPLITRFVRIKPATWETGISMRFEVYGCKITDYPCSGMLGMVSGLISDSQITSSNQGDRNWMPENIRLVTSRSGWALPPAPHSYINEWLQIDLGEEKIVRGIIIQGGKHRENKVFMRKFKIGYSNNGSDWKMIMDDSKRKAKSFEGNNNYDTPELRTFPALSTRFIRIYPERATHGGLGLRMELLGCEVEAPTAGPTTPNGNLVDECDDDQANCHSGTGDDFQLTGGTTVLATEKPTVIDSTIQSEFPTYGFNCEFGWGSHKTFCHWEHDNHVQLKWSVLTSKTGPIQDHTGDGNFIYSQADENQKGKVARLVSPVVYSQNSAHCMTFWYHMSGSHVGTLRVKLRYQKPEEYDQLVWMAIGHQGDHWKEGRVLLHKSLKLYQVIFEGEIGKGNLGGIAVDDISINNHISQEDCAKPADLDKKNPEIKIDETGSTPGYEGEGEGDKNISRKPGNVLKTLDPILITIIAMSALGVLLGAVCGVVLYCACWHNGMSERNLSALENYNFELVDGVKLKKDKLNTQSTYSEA

B1: monoclonal anti-NRP1 antibody 7130 (antibody, V domains shown)
VH: QLVEESGGGLVTPGGTLTLTCTASGFTISNYHMSWVRQAPGKGLEWIGIIYAVSAATWSATWVKGRFTISKTLTTVDLKMTSLTAADTATYFCARVRAPGDSTYYDLWGPGTLVTVSS
VL: AVVMTQTASPVSAVVGGTVTINCQASQTISNNWLSWYQQKPGQPPKLLIYKASILASGVPSRFSGSGSGTEFTLTISGVQCDDAATYYCLYGHYITTSAHNAFGGGTEVVVKG
notes: Rabbit monoclonal antibody from a hybridoma (rabbit immunised with human soluble NRP1)
Consider B1, for which the binding result is “binds”.
